Data on 5 molecules can be found in patent publication US20230312742A1 (Y MABS THERAPEUTICS, published 2023).

The target of experiment [1] is T1, human CD38 antigen (recombinant human CD38 protein) (human, UniProt P28907 43-300, limits assumed). Briefly: SPR, antibody captured on Protein-L chip, human CD38 in solution; humanized 8DC3. In general terms: Surface plasmon resonance follows binding to a sensor surface in real time, without labels.
The target in experiment [2] is T2, CD38 on CD38(+) cancer cells (RPMI8226, Raji, Daudi) (UniProt P28907 1-300, limits assumed).
T2 construct: whole, on cells; Endogenous CD38 on tumour cell lines; also called CD38(+) tumor cells; CD38(+) Raji cells
Briefly: flow cytometry on Raji cells, detection with an anti-his tag antibody. (In general: Flow cytometry measures light scatter and fluorescence of single cells or particles in a stream.)

Experiment [3] concerns the target T1, human CD38 antigen (recombinant human …). Briefly: SPR, construct captured on immobilised protein-L (HC30M chip), human CD38 antigen flown over.
The target of experiment [4] is T2, CD38 on CD38(+) cancer cells (RPMI8226, …). Briefly: flow cytometry on RPMI 8226 cells, detection with an anti-his tag antibody.
Experiment [5] concerns the target T1, human CD38 antigen (recombinant human …). Briefly: SPR, His-tagged SADA captured on NiHC200M chip, recombinant human CD38 in solution; average.
Experiment [6] has the same target. Briefly: SPR, His-tagged SADA construct captured on a NiHC200M chip, recombinant human CD38 protein injected.
The target is the same in experiment [7]. The experiment is described as above. This is another data set of the same source.
The target is the same in experiment [8]. Briefly: SPR, antibody captured on Protein-L chip, human CD38 in solution; murine antibody, not named.
The target is the same in experiment [9]. Briefly: SPR, antibody captured on Protein-L chip, human CD38 in solution.

Substitutions are numbered along the chain they refer to. In names and notes the source's numbering stands.

B1: 8DC-3 (anti-CD38 scFv-(G4S)4-huC825 anti DOTA scFv-linker-P53-linker-His tag) (bispecific antibody)
chain: QVQLQESGPGLVKPSETLSLTCTVSGFSLTSYGVHWVRQPPGKGLEWIGVMWRGGSTDYNAAFKSRVTISKDNSKNQVSLKLSSVTAADTAVYYCAKSMITTGFVMDSWGQGTLVTVSSGGGGSGGGGSGGGGSGGGGSGGGGSGGGGSDIQLTQSPSSLSASVGDRVTITCKASEDIYNRLTWYQQKPGKAPKLLISGATSLETGVPSRFSGSGSGKDYTFTISSLQPEDFATYYCQQYWSNPYTFGQGTKLEIKGGGGSGGGGSGGGGSGGGGSHVQLVESGGGLVQPGGSLRLSCAASGFSLTDYGVHWVRQAPGKGLEWLGVIWSGGGTAYNTALISRFTISRDNSKNTLYLQMNSLRAEDTAVYYCARRGSYPYNYFDAWGCGTLVTVSSGGGGSGGGGSGGGGSGGGGSGGGGSGGGGSQAVVTQEPSLTVSPGGTVTLTCGSSTGAVTASNYANWVQQKPGQCPRGLIGGHNNRPPGVPARFSGSLLGGKAALTLLGAQPEDEAEYYCALWYSDHWVIGGGTKLTVLGTPLGDTTHTSGKPLDGEYFTLQIRGRERFEMFRELNEALELKDAQAGKEPGGSGGAPHHHHHH
notes: SADA construct with VL5 and VH8
Regarding B1, in [1], the Kd – broadly, the concentration at which binding is half-saturated – was determined as 31 nM. In experiment [2], the EC50 (read off the curve) (in general, the concentration giving half of the maximal effect) was around 0.06 µg/mL. Also, in experiment [3], the koff – broadly, the rate constant with which the complex falls apart – was 0.00085 s⁻¹ and the kon – broadly, the second-order rate constant of association – worked out at 27000 M⁻¹ s⁻¹.

B2: 8DC-4 (anti-CD38 scFv-(G4S)4-huC825 anti DOTA scFv-linker-P53-linker-His tag) (bispecific antibody)
chain: B1 chain with G44C, Q249C
notes: SADA construct with VL8 and VH11 (extra disulfide in the anti-CD38 scFv), VH-VL order
On to B2, for which the figures for the “EC50 (read off the curve)” value in [2] and in [4] were around 0.05 µg/mL and around 0.07 µg/mL, respectively. Moreover, the dissociation constant Kd in experiment [5] is 0.28 nM; in experiment [6], 0.532 nM. Moreover, the kon in experiment [5] amounted to 89000 M⁻¹ s⁻¹.

B3: 8DC-5 (anti-CD38 scFv-(G4S)4-huC825 anti DOTA scFv-linker-P53-linker-His tag) (bispecific antibody)
chain: DIQLTQSPSSLSASVGDRVTITCKASEDIYNRLTWYQQKPGKAPKLLISGATSLETGVPSRFSGSGSGKDYTFTISSLQPEDFATYYCQQYWSNPYTFGCGTKLEIKGGGGSGGGGSGGGGSGGGGSGGGGSGGGGSQVQLQESGPGLVKPSETLSLTCTVSGFSLTSYGVHWVRQPPGKCLEWIGVMWRGGSTDYNAAFKSRVTISKDNSKNQVSLKLSSVTAADTAVYYCAKSMITTGFVMDSWGQGTLVTVSSGGGGSGGGGSGGGGSGGGGSHVQLVESGGGLVQPGGSLRLSCAASGFSLTDYGVHWVRQAPGKGLEWLGVIWSGGGTAYNTALISRFTISRDNSKNTLYLQMNSLRAEDTAVYYCARRGSYPYNYFDAWGCGTLVTVSSGGGGSGGGGSGGGGSGGGGSGGGGSGGGGSQAVVTQEPSLTVSPGGTVTLTCGSSTGAVTASNYANWVQQKPGQCPRGLIGGHNNRPPGVPARFSGSLLGGKAALTLLGAQPEDEAEYYCALWYSDHWVIGGGTKLTVLGTPLGDTTHTSGKPLDGEYFTLQIRGRERFEMFRELNEALELKDAQAGKEPGGSGGAPHHHHHH
notes: SADA construct with VL8 and VH11 (extra disulfide in the anti-CD38 scFv), VL-VH order
As for B3, the “EC50 (read off the curve)” value in experiment [2] is around 0.07 µg/mL; in experiment [4], around 0.05 µg/mL. Besides, the Kd in experiment [5] was found to be 0.17 nM; in [7], 0.214 nM. Besides, the kon in experiment [5] worked out at 96000 M⁻¹ s⁻¹.

B4: 8DC-1 (anti-CD38 scFv-(G4S)4-huC825 anti DOTA scFv-linker-P53-linker-His tag) (bispecific antibody)
chain: QVQLKQSGPGLVHPSQSLSITCTVSGFSLTSYGVHWVRQSPGKGLEWLGVMWRGGSTDYNAAFMSRLNITKDNSKRQVFFKMNSLQADDTAIYYCAKSMITTGFVMDSWGQGTSVTVSSGGGGSGGGGSGGGGSGGGGSGGGGSGGGGSDIQLTQSPSSFSVSLGDRVTITCKASEDIYNRLTWYQQKPGNAPRLLISGATSLETGVPSRFSGSGSGKDYTLSITSLQTEDVATYYCQQYWSNPYTFGGGTKLEIRGGGGSGGGGSGGGGSGGGGSHVQLVESGGGLVQPGGSLRLSCAASGFSLTDYGVHWVRQAPGKGLEWLGVIWSGGGTAYNTALISRFTISRDNSKNTLYLQMNSLRAEDTAVYYCARRGSYPYNYFDAWGCGTLVTVSSGGGGSGGGGSGGGGSGGGGSGGGGSGGGGSQAVVTQEPSLTVSPGGTVTLTCGSSTGAVTASNYANWVQQKPGQCPRGLIGGHNNRPPGVPARFSGSLLGGKAALTLLGAQPEDEAEYYCALWYSDHWVIGGGTKLTVLGTPLGDTTHTSGKPLDGEYFTLQIRGRERFEMFRELNEALELKDAQAGKEPGGSGGAPHHHHHH
notes: SADA construct with the murine AT13/5 VH and VL; also called the murine antibody
As for B4, in experiment [2], the “EC50 (read off the curve)” value was around 0.05 µg/mL. Besides, in experiment [4], the “EC50 (read off the curve)” value was around 0.06 µg/mL. The Kd in [8] was 7.4 nM. For the same molecule, in experiment [3], the koff was 0.0012 s⁻¹ and the kon is 160000 M⁻¹ s⁻¹.

B5: 8DC-2 (anti-CD38 scFv-(G4S)4-huC825 anti DOTA scFv-linker-P53-linker-His tag) (bispecific antibody)
chain: QVQLQESGPGLVRPSQTLSLTCTVSGFTFTSYGVHWVRQPPGRGLEWIGVMWRGGSTDYNAAFMSRVTMLVDTSKNQFSLRLSSVTAADTAVYYCAKSMITTGFVMDSWGQGSLVTVSSGGGGSGGGGSGGGGSGGGGSGGGGSGGGGSDIQMTQSPSSLSASVGDRVTITCKASEDIYNRLTWYQQKPGKAPKLLISGATSLETGVPSRFSGSGSGTDFTFTISSLQPEDIATYYCQQYWSNPYTFGQGTKVEIKGGGGSGGGGSGGGGSGGGGSHVQLVESGGGLVQPGGSLRLSCAASGFSLTDYGVHWVRQAPGKGLEWLGVIWSGGGTAYNTALISRFTISRDNSKNTLYLQMNSLRAEDTAVYYCARRGSYPYNYFDAWGCGTLVTVSSGGGGSGGGGSGGGGSGGGGSGGGGSGGGGSQAVVTQEPSLTVSPGGTVTLTCGSSTGAVTASNYANWVQQKPGQCPRGLIGGHNNRPPGVPARFSGSLLGGKAALTLLGAQPEDEAEYYCALWYSDHWVIGGGTKLTVLGTPLGDTTHTSGKPLDGEYFTLQIRGRERFEMFRELNEALELKDAQAGKEPGGSGGAPHHHHHH
notes: SADA construct with VL7 and VH10 (published huAT13/5 of Ellis et al.)
In the case of B5, in experiment [9], the Kd was determined as 163 nM. In experiment [3], the koff is 0.001 s⁻¹ and the kon is 6400 M⁻¹ s⁻¹.
